Data: PMC10962640, ““Clickable” graphene nanoribbons for biosensor interfaces†”

Tests used:
[1] = molecular target: T1, Interleukin-6 (IL6) (human, UniProt P05231 30-212); test: DPV (electrochemical aptasensor); [Fe(CN)6]4- redox probe; Hill fit, coefficient fixed at 1; Aptamer on GNR-functionalized gold electrodes, [Fe(CN)6]4- redox probe; sensing buffer, pH and temperature not given in the material (aptamer clicked in PBS 1X); conditions: protein: commercial
[2] = molecular target: T1, Interleukin-6 (IL6); test: EIS (electrochemical aptasensor); [Fe(CN)6]4- redox probe; phase shift; Hill fit, coefficient fixed at 1; Aptamer on GNR-functionalized gold electrodes, [Fe(CN)6]4- redox probe; sensing buffer, pH and temperature not given in the material (aptamer clicked in PBS 1X); conditions: protein: commercial

T1 sequence (P05231 30-212): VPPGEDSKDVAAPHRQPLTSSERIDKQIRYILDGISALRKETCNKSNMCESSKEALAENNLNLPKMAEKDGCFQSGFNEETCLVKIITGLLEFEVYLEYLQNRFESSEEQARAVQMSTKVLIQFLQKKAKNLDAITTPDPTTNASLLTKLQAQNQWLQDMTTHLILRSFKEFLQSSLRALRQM

B1: IL6 DNA aptamer (azide-modified) (ssDNA)
DNA: TTTTTTCTTCCAACGCTCGTATTGTCAGTCTTTAGT
modifications: 5' azide (/5AzideN/), clicked by CuAAC to alkyne graphene nanoribbons on gold electrode
B1 gave a Kd [1] of 3.4 ± 0.4 nM and a Kd [2] of 10.4 ± 3.1 nM.
